From patent US20070020258A1 (published 2007)
Each block holds one binder with its values, some of them ahead of it.

Experiments:
[1] = target: T1, human IgE (ND and PS allotypes) (human, UniProt P01854-1 1-428, tracer iodinated with 125I (chloramine T)); assay: 125I-IgE equilibrium binding, Scatchard
T1 construct: IgE used for the Scatchard Kd; also called 125I IgE; unlabelled IgE
Procedure: e. Scatchard analysis was performed utilizing a Fortran program (scanplot) based on the Ligand program written by P. Munson at NIH. Scatplot uses a mass action equation fitting bound as a function of total using the Rodbard type regression analysis.

[2] = target: T2, human IgE purified from U266B1 cells (human, UniProt P01854-1 1-428); assay: IgE/FcεRI inhibition ELISA
T2 construct: domain: Fcε4; Whole IgE; its X residues are spacers that keep Kabat numbering and are not part of the protein; also called U266 IgE; U266 IgE standard
Procedure: A 96-well assay plate (Manufn Nunc.) was coated with 0.05 ml of the FcεRI alpha chain IgG1 chimeric receptor in 1 μg/ml coating buffer ([…] carbonate/bicarbonate, pH 9.6). Assay was done for 12 hours at 4-8° C. The wells were aspirated and 250 μl blocking buffer (PBS-1% BSA pH 7.2) was added and incubated for one hour at 4° C. […] The FcεRI-coated wells were washed three times with PBS-0.05% Tween20, and then 50 μl from the sample wells were transferred and incubated with agitation for 30 minutes at 25° C. 50 μl/well of streptavidin-HRP diluted 1:5000 in assay buffer was incubated for 15 minutes with agitation and then the plate was washed as before. 50 μl/well of Microwell peroxidase substrate (Kirkgaard & Parry Laboratories) was added and color was developed for 30 minutes.

T1 sequence (P01854 other isoform, or with tags, fused parts or gaps): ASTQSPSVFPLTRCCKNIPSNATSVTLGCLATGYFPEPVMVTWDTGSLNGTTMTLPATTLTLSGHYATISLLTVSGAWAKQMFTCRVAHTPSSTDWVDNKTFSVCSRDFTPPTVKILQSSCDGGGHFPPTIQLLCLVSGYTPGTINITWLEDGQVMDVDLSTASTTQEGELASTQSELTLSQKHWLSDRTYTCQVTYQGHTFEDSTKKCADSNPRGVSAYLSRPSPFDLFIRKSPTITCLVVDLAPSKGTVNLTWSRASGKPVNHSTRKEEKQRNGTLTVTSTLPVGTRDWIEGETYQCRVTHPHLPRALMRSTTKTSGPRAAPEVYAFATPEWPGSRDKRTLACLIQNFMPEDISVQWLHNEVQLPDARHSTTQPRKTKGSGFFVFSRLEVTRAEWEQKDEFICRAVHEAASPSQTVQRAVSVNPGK
T2 sequence (P01854 other isoform, or with tags, fused parts or gaps): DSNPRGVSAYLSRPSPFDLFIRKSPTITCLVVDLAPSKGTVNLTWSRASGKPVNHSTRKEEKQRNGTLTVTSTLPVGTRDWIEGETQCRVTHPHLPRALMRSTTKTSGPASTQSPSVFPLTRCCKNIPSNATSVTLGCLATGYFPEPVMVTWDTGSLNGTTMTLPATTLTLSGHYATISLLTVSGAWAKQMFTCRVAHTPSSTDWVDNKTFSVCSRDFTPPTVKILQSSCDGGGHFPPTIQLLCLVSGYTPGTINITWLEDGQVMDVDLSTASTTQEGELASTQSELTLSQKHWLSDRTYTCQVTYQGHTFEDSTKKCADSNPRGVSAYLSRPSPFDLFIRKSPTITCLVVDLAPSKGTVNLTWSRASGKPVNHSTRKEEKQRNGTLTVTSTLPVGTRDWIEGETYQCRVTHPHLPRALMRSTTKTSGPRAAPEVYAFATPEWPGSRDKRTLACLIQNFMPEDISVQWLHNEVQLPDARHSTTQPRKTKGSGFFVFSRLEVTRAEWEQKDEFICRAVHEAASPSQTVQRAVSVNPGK

Kd [1]: 70 nM
B1: MAE15 (antibody, V domains shown)
VH: DVQHQESEPDLVKPSQSLSLTCTVTGYSITSGYNRHWIRQFPGNKLEWMGYIHYSGSTNYNPSLKRRISITRDTSKNQFFLQLNSVTTEDTATYYCARGSIYYYGSRYRYFDVWGAGTTVTVSS
VL: DIQLTQSPASLAVSLGQRATISCKASQSVDYDGDSYMNWYQQKPGQPPKLLIYAASNLESGIPARFSGSGSGTDFTLNIHPVEEEDAATYYCQQSNEDPFTFGAGT
notes: murine IgG1

Kd [1]: 50 nM
B2: MAE13 (antibody, V domains shown)
VH: DVQLQESGPGLVKPSQSLSLTCTVTGYTITSDNAWNWIRQFPGNKLEWMGYINHSGTTSYNPSLKSRISITRDTSKNQFFLQLNSVTTEDTATYYCAWVVAYAMDYWGQGTSVTVSS
VL: DIVMTQSQKFMSTSVGDRVSVTCKASQNVSSNVAWYQQKPGQSPKALIYSASYRYSGVPDRFTGSGSGTDFTLTISNVQSEDLAEYFCQQYYTYPLYTFGGGTKLEIKR
notes: murine IgG1

Kd [1]: 30 nM
ratio Var. X / IgL1H1 [2]: 0.06
ratio Var. X / MaE11 [2]: 1
B3: MAE11 (antibody, V domains shown)
VH: DVQLQESGPGLVKPSQSLSLACSVTGYSITSGYSWNWIRQFPGNKLEWMGSITYDGSSNYNPSLKNRISVTRDTSQNQFFLKLNSATAEDTATYYCARGSHYFGHWHFAVWGAGTTVTVSS
VL: DIVLTQSPASLAVSLGQRATISCKASQSVDYDGDSYMNWYQQKPGQPPILLIYAASYLGSEIPARFSGSGSGTDFTLNIHPVEEEDAATFYCQQSHEDPYTFGAGTKLEIK
notes: murine IgG1
